From doi:10.1101/2021.04.12.439405 (bioRxiv, 2021)

Target: T1, MukB^KRK (K1114E, R1122E and K1125E) (E. coli, UniProt P22523 1-1486, K1114E | R1122E | K1125E)
T1 sequence (looked up): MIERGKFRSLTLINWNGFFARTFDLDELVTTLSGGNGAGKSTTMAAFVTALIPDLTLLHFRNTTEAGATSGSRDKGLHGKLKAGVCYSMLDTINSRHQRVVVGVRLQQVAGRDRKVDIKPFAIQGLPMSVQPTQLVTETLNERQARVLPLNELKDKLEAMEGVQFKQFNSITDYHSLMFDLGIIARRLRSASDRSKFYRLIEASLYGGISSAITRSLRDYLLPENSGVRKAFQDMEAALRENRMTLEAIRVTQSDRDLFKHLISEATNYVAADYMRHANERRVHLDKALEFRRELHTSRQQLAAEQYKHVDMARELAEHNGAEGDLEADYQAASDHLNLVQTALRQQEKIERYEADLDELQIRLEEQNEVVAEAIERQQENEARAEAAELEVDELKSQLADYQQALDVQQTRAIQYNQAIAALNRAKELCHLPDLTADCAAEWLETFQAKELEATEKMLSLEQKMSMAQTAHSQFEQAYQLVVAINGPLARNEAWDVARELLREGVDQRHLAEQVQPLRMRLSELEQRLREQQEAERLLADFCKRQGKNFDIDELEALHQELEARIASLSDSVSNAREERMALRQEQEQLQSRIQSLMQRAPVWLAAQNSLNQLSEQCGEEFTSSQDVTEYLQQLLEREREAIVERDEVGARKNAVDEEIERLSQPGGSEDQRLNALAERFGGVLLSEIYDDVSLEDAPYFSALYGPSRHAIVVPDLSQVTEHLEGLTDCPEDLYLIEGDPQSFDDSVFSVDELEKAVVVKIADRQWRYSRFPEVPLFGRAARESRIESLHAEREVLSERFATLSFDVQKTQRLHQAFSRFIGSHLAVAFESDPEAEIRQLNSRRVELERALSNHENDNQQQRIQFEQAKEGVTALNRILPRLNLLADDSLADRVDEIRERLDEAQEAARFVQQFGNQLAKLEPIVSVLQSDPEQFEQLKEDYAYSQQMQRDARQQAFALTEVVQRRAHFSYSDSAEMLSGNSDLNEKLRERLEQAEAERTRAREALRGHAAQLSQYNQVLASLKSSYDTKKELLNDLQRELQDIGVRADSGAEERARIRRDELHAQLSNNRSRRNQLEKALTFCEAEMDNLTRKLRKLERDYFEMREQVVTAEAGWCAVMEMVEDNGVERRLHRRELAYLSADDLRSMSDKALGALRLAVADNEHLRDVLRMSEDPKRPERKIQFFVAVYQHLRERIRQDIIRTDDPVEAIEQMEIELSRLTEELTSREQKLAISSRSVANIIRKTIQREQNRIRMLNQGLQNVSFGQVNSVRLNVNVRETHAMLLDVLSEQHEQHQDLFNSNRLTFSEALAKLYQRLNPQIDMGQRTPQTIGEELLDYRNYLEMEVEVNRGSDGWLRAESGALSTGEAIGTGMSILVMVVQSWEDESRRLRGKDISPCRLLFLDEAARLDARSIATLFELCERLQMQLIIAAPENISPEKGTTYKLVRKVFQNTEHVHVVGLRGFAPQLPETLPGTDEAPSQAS
Assay: native gel or EMSA

binding result: binds
B1: His-MukF (natural protein, E. coli, UniProt P60293 1-440, looked up)
chain: MSEFSQTVPELVAWARKNDFSISLPVDRLSFLLAVATLNGERLDGEMSEGELVDAFRHVSDAFEQTSETIGVRANNAINDMVRQRLLNRFTSEQAEGNAIYRLTPLGIGITDYYIRQREFSTLRLSMQLSIVAGELKRAADAAEEGGDEFHWHRNVYAPLKYSVAEIFDSIDLTQRLMDEQQQQVKDDIAQLLNKDWRAAISSCELLLSETSGTLRELQDTLEAAGDKLQANLLRIQDATMTHDDLHFVDRLVFDLQSKLDRIISWGQQSIDLWIGYDRHVHKFIRTAIDMDKNRVFAQRLRQSVQTYFDEPWALTYANADRLLDMRDEEMALRDEEVTGELPEDLEYEEFNEIREQLAAIIEEQLAVYKTRQVPLDLGLVVREYLSQYPRARHFDVARIVIDQAVRLGVAQADFTGLPAKWQPINDYGAKVQAHVIDKY
